One block for each compound: values may come before it.
Assays:
[1] = biological target: T1, RamBPd (Pden_1365) (Paracoccus denitrificans, UniProt A1B1S2); test: mass photometry titration (tetramer to dimer shift; saturation at […], […] dimer to tetramer); format: binding
T1 construct: purified RamBPd, His-SUMO tag cleaved off
T1 sequence (A1B1S2 1-477): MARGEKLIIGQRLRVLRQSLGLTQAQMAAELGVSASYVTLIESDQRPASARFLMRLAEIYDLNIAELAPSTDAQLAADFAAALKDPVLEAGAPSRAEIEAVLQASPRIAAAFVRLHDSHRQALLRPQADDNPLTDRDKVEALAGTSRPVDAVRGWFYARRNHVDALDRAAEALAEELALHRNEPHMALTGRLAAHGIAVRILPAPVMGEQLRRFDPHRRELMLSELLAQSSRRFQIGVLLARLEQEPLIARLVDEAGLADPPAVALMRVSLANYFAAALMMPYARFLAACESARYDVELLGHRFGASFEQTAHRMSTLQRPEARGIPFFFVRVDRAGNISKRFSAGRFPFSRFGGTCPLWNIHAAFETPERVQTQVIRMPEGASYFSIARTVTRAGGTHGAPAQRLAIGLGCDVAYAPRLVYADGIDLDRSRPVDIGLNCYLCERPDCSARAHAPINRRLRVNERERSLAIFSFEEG

[2] = biological target: T1, RamBPd (Pden_1365); test: mass photometry titration (tetramer to dimer shift); format: binding
[3] = biological target: RamBPd (Pden_1365), regulator of acetate metabolism of Paracoccus denitrificans Pd1222 (Paracoccus denitrificans Pd1222); test: mass photometry; 250 nM RamBPd in PBS (pH 7.4), no supplement; Refeyn One mass photometer
[4] = biological target: RamBPd (Pden_1365), regulator of acetate metabolism of Paracoccus denitrificans Pd1222 (Paracoccus denitrificans Pd1222); test: mass photometry; 250 nM RamBPd in PBS (pH 7.4), pre-incubated for 35 min with rising concentrations of free CoA or of a CoA ester (ethylmalonyl-, methylsuccinyl-, mesaconyl-, crotonyl-, beta-methylmalyl-CoA); tetramer to dimers

Compound: CC(C)(COP(=O)(O)OP(=O)(O)OC[C@H]1O[C@@H](n2cnc3c(N)ncnc32)[C@H](O)[C@@H]1OP(=O)(O)O)[C@@H](O)C(=O)NCCC(=O)NCCS [CoA]
- mass photometry titration (tetramer to dimer shift); saturation at 62.5 μM, 1:1 d [1]: tetrameric RamBPd complex dissociates into a dimer upon the addition of CoA

- Kd [2]: ~700 µM
Compound: C[C@@H](C(=O)SCCNC(=O)CCNC(=O)[C@H](O)C(C)(C)COP(=O)(O)OP(=O)(O)OC[C@H]1O[C@@H](n2cnc3c(N)ncnc32)[C@H](O)[C@@H]1OP(=O)(O)O)[C@H](O)C(=O)O [β-methylmalyl-CoA]

- stoichiometry N [3]: 4
- ratio of dimer to tetramer at saturation with 62.5 uM free CoA (dimer:tetramer) [4]: 1
- ratio of dimers to tetramers with beta-methylmalyl-CoA (dimer:tetramer) [4]: 9
- ratio of dimers to tetramers with crotonyl-CoA (dimer:tetramer) [4]: 3
- ratio of dimers to tetramers with mesaconyl-CoA (dimer:tetramer) [4]: 3
- stoichiometry N [4]: 2
Compound: RamBPd (Pden_1365), regulator of acetate metabolism of Paracoccus denitrificans Pd1222 (natural protein)

Reference: article PMC10370305, “Functional Degeneracy in Paracoccus denitrificans Pd1222 Is Coordinated via RamB, Which Links Expression of the Glyoxylate Cycle to Activity of the Ethylmalonyl-CoA Pathway” (Applied and Environmental Microbiology, 2023)
